Assay results taken from US20220305006A1, “COMPOSITIONS AND METHODS FOR THE TREATMENT OF NEUROLOGICAL DISEASES AND DISORDERS” (The Regents of the University of California, priority 2019, published 2022).

Target: BACE1 structure PDB ID: 1XN3 after removal of BACE inhibitor 1 (apo model used in silico) (UniProt P56817)
Assay: computed, not measured: MMPBSA (AMBER) on 10000 snapshots of a 50 ns molecular dynamics run

BACE1 structure PDB ID: 1XN3 after removal of BACE inhibitor 1 (apo model used in silico), sequence (P56817 58-446 limits assumed): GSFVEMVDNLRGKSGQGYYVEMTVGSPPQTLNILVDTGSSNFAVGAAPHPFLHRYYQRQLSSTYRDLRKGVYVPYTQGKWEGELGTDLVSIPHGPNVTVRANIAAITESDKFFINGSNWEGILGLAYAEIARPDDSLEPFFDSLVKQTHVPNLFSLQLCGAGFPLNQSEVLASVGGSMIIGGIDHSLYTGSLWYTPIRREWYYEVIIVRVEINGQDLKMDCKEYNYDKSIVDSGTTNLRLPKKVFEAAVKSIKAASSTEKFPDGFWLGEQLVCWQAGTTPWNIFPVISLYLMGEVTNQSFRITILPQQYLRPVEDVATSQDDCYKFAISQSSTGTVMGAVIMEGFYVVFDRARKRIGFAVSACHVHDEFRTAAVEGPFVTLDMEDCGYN

Row | Binder | BACE Binding ΔG
1 | Ac-ALYPYFLPISAK-NH2 [Peptide 65007] | -45.1 kcal/mol
2 | Ac-NLTTYPYFIPL-NH2 [Peptide 65005] | -25.4 kcal/mol
